Among the data in article PMC7706699 are Kd values, retold here.

The target in this assay is hFip1 (residues 137–243) S159C/C189S/C216S mutant, FAM-labeled (human) (UniProt Q6UN15). The experiment in a line: fluorescence polarisation.
“human CPSF30 (residues 62–244) Y151A mutant (from UniProt O95639-2 62-244) (domain or fragment)” showed a Kd of 0.0054 µM.

Turning to “human CPSF30 ZF2–C terminus (residues 62–244), wild type (from UniProt O95639-2 62-244) (domain or fragment)”, the Kd is 0.0114 µM.

“human CPSF30 (residues 62–244) Y127A mutant (from UniProt O95639-2 62-244) (domain or fragment)” came in with a Kd of 0.022 µM.
